No end group written: not given here.

The values below come from patent publication US20090311686A1 (GIVAUDAN, published 2009).

Test in all cases: cell-based or functional assay
The target in assay [1] is human T1R2/T1R3 sweet receptor heterodimer (wildtype) (human, UniProt Q8TE23 20-839; Q7RTX0 21-852).
Assay [2] deals with T1, CSR:T1R2/CSR:T1R3 chimeric heterodimer (human).
T1 chain 1: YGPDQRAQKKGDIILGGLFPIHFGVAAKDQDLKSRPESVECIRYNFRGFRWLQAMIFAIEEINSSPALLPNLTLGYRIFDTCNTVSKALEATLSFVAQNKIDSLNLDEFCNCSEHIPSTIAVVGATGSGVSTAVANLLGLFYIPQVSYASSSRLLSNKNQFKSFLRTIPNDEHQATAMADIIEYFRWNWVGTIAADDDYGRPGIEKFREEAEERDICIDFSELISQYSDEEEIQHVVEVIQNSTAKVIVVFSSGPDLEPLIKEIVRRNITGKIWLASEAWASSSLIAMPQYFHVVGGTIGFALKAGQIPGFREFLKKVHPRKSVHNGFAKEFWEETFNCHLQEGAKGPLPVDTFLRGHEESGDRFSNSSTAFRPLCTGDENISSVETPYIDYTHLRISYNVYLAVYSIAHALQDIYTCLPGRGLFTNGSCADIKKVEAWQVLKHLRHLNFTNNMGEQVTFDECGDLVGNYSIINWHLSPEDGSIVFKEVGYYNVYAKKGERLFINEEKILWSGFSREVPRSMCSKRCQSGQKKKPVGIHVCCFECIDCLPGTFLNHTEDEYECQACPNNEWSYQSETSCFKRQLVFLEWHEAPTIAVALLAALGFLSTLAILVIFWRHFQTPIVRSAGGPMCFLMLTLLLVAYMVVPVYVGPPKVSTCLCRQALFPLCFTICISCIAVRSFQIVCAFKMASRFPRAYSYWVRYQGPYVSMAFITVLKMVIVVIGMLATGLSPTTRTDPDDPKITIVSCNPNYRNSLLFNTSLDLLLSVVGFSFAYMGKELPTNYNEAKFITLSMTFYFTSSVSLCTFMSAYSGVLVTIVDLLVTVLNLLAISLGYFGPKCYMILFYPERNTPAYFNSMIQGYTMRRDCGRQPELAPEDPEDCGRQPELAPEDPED
T1 chain 2: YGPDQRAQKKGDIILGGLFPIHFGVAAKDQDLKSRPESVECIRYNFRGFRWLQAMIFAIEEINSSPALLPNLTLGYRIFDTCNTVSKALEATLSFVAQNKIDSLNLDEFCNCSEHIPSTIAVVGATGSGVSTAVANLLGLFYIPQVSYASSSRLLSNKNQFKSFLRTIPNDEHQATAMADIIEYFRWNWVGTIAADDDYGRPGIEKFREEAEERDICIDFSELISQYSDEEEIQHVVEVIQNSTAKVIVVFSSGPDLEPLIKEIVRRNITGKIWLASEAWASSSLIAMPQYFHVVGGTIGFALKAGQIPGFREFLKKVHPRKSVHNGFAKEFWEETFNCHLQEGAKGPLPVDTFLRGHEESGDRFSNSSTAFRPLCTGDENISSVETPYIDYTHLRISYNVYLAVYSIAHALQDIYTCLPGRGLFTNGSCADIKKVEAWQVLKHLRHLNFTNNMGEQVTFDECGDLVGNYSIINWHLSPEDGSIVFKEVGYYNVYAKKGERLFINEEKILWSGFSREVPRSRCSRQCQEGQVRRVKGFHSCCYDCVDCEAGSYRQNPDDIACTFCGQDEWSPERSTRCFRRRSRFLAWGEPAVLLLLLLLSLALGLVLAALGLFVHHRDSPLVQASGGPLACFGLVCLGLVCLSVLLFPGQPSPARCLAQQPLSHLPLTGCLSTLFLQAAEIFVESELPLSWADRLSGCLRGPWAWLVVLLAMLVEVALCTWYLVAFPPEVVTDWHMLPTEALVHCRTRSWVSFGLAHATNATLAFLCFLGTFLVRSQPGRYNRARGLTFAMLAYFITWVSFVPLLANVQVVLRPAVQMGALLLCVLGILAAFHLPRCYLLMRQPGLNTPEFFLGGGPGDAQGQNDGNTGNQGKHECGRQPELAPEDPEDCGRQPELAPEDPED

Assay [3] has as its target T2, human calcium-sensing receptor (hCaSR), full length (human, UniProt Q8TE23 20-839).
T2 sequence: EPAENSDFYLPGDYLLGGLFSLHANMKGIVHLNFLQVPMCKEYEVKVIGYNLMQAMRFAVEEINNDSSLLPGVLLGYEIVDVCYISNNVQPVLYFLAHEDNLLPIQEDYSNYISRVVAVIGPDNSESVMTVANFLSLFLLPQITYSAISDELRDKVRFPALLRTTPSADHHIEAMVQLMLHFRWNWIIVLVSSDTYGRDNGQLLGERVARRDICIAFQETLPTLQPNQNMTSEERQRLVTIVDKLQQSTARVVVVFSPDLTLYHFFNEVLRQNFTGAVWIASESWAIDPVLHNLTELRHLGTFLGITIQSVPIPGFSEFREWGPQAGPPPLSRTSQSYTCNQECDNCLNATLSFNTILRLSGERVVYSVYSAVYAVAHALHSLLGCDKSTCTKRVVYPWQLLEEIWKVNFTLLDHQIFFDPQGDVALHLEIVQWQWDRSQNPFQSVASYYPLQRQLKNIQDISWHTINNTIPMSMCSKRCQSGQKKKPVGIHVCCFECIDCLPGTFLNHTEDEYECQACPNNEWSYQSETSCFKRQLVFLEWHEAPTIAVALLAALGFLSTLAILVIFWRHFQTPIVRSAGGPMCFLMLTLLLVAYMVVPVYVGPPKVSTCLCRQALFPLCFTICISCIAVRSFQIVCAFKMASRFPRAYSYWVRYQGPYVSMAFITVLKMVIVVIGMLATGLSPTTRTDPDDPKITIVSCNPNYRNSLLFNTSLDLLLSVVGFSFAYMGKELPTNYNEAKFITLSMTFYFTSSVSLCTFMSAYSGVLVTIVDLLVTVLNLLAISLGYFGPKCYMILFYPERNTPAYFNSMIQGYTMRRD

human T1R2/T1R3 sweet receptor heterodimer (wildtype), sequence (Q7RTX0 21-852 C757R limits assumed, one chain of several): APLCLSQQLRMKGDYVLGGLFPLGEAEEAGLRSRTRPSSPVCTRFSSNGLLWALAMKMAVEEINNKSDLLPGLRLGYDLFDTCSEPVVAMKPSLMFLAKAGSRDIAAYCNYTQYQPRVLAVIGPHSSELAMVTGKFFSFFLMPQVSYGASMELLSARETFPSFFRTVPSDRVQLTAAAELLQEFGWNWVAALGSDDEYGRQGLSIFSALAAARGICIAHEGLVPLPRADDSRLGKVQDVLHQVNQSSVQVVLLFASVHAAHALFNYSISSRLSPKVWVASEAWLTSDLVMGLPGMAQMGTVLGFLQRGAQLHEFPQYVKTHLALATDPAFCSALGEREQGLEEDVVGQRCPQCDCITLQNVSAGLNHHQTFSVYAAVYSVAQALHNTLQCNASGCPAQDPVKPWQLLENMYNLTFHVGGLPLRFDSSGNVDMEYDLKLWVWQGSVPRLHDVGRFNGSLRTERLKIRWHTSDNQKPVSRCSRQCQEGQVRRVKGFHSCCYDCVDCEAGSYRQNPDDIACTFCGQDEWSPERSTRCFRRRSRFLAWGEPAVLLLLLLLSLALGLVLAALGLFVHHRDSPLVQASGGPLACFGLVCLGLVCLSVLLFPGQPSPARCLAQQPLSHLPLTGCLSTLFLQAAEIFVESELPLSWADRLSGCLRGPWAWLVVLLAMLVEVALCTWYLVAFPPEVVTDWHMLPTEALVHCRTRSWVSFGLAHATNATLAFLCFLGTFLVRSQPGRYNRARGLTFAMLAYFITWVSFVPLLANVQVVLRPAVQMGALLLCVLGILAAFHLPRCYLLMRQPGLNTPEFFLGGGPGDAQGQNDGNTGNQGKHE

B1: Aspartame (aspartyl-phenylalanine-1-methyl ester, a dipeptide) (peptide)
peptide: Asp-Phe-OMe
For the molecule B1, the “net increase in fluorescence over baseline (Fluo-4 calcium assay, AVG of six replicates), aspartame 0.85 mM” value in assay [1] stood at 531 RFU; in assay [2], 72 RFU; in assay [3], 41 RFU.
